Results taken from the supplement of paper PMC10724198.
± gives the standard deviation of the averaged measurements.

System: Saccharomyces cerevisiae
Assay: protein stability index of tFT-peptide fusion (C-terminal peptide) (PSI (0-1 scale)); higher = more stable (slower turnover)
Conditions: genetic background: wild type; temperature: 30 C
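Also: PSI is a weighted mean of sequencing reads over stability bins, variants kept only with over 10 reads, mCherry proximal and sfGFP distal, peptide attached via GGGS linker.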

Sequence	protein stability index
LPPSPEPLPPRR	0.717 ± 0.059
LPPSPLLLTSPP	0.687 ± 0.016
LPPSPPLSPITS	0.55 ± 0.024
LPRAPPPPPLLL	0.757 ± 0.0076
LPRPSALLLRSL	0.5 ± 0.12
LPRPYRPASTCT	0.656 ± 0.016
LPRRSSRRQYAA	0.751 ± 0.022
LPRSASLHVRPH	0.707 ± 0.023
LPSFPRISPPSI	0.656 ± 0.016
LPSLLYIFPPLS	0.6975 ± 0.0068
LPSPPPAPTPGP	0.681 ± 0.019
LPSPRPSPSRVP	0.676 ± 0.038
LPSTLLLPLASP	0.712 ± 0.018
LPTLPLPHRHHL	0.742 ± 0.0072
LPTSTRRGGSHG	0.6911 ± 0.0055
LPVCAFGWPVKS	0.6566 ± 0.0037
LPVDPPLGGHPT	0.655 ± 0.03
LPWCSTLEIRER	0.694 ± 0.011
LPYSPPSLTLPR	0.666 ± 0.086
LQFSTSMGVLMV	0.591 ± 0.01
LQHGKSRCAFRK	0.652 ± 0.026
LQPATGPQRVIS	0.665 ± 0.03
LQSGALEHLGAS	0.716 ± 0.074
LQSPGAFFSVSK	0.7 ± 0.018
LQTLPAPHTPFP	0.643 ± 0.039
LQWAAGLRTTSP	0.692 ± 0.071

Sequence	protein stability index
LRARSSKPPYWL	0.737 ± 0.028
LRAWPILPSRVL	0.641 ± 0.014
LRCRLCRFFPFL	0.714 ± 0.044
LRFGLRCPLYHL	0.799 ± 0.11
LRFLVVTGSSCS	0.665 ± 0.052
LRGGGGIVVGVV	0.563 ± 0.012
LRGGSRWVSGGY	0.636 ± 0.026
LRGKLGNCLGLL	0.733 ± 0.028
LRGLIDVKSSLK	0.758 ± 0.052
LRGLVGEYRRLK	0.656 ± 0.057
LRGVGGAGVFFG	0.675 ± 0.025
LRGVSGTLSSSC	0.6733 ± 0.0045
LRKSSIQRQKKR	0.653 ± 0.034
LRLAVVSHSCGA	0.639 ± 0.023
LRLFAGTFSGTP	0.698 ± 0.03
LRLIPPLTTFDY	0.645 ± 0.098
LRLLRPVPPRVF	0.5405 ± 0.0019
LRLPSPLPSPPS	0.6283 ± 0.0034
LRLTCRPWGLFF	0.6377 ± 0.0051
LRPPLPPPCPPP	0.599 ± 0.12
LRPPPPPASVCR	0.646 ± 0.029
LRPPSCCPLEIQ	0.705 ± 0.076
LRPQKIPASSEA	0.678 ± 0.0077
LRQRAHRPYFRS	0.706 ± 0.019
LRSGRCFFVARL	0.73 ± 0.068
LRSMLRCPSPLS	0.759 ± 0.031

Sequence	protein stability index
LRSPPPPAQPFV	0.69 ± 0.0075
LRTRKKTIDHHN	0.663 ± 0.013
LRVGGKRREVMG	0.709 ± 0.055
LRVYIRAAWVGL	0.604 ± 0.016
LSALGGVLWWWC	0.616 ± 0.026
LSARPFPPLMYS	0.6968 ± 0.0025
LSASALEFSSPP	0.699 ± 0.0069
LSFAGLPFCPGL	0.722 ± 0.13
LSFRPPLHPFAL	0.695 ± 0.01
LSFSPSFLPDSP	0.782 ± 0.062
LSGSSNRVLFDL	0.728 ± 0.053
LSHAHLSPTSSA	0.708 ± 0.088
LSILVGDREGSV	0.753 ± 0.13
LSLCYCALTSSN	0.541 ± 0.0097
LSLFFSSFLITF	0.628 ± 0.12
LSLFISPTACLT	0.584 ± 0.01
LSLFLAWSLFFL	0.487 ± 0.083
LSLFLPFRFFRS	0.699 ± 0.025
LSLFSLSPSFSR	0.718 ± 0.013
LSLPFLYCFATL	0.518 ± 0.0056
LSLSPLPAPCPP	0.713 ± 0.071
LSLTIYVSELFR	0.587 ± 0.0084
LSNGVCSVSFLL	0.672 ± 0.024
LSPCCFLTSSSF	0.71 ± 0.033
LSPHPPITHPTP	0.683 ± 0.034
LSPLIHSPRPFA	0.752 ± 0.061

Sequence	protein stability index
LSPPLPARPAAS	0.687 ± 0.034
LSPPLRFPPPPP	0.709 ± 0.073
LSPSLPLPNPSP	0.729 ± 0.044
LSPSMSRLWGSK	0.7365 ± 0.0033
LSPSSPHLPFPL	0.702 ± 0.038
LSRGPYRPHVNP	0.69 ± 0.051
LSRPPPPLLPSV	0.749 ± 0.03
LSRSSQPLPPPH	0.7306 ± 0.0021
LSSGCSVKLRAQ	0.67 ± 0.015
LSSGPARVMVVL	0.608 ± 0.04
LSSLHFRFLSAG	0.62 ± 0.062
LSSLLFSPLPPS	0.7593 ± 0.0019
LSSWTYTRFLHG	0.749 ± 0.085
LSTCIMFRSCGG	0.693 ± 0.041
LSTMPLFPSLHR	0.731 ± 0.025
LSVFDTSLFFSS	0.787 ± 0.099
LSWSLSSFACEM	0.65 ± 0.014
LSYRYPLYPILL	0.647 ± 0.018
LTACLRRTNTLM	0.503 ± 0.0041
LTASRLAGSGGE	0.69 ± 0.023
LTATNEARNIDH	0.659 ± 0.027
LTCYFSASNVLW	0.615 ± 0.046
LTDCIHERKGTE	0.743 ± 0.017
LTFGAPGACGLG	0.719 ± 0.024
LTGAQPTDPNMR	0.697 ± 0.071
LTGFYFFFDMTL	0.6366 ± 0.0032

Sequence	protein stability index
LTLCRSPMSLRA	0.633 ± 0.12
LTPAPSSCLRSP	0.6857 ± 0.005
LTPLPPPPLRPP	0.599 ± 0.024
LTRRCPVGAWGN	0.692 ± 0.012
LTSGTVLVLSSL	0.683 ± 0.03
LTSPPPPPARVP	0.739 ± 0.11
LTSRPIPFLLRG	0.666 ± 0.014
LTSWAKRMGLGD	0.731 ± 0.1
LTWCGVSEAVIA	0.50795 ± 0.00033
LTYVSGIASVYG	0.532 ± 0.019
LVALTSVLSALF	0.698 ± 0.069
LVCGIDSLVRLV	0.57 ± 0.029
LVCGIGFIYFGF	0.492 ± 0.014
LVCLWQGSSVLI	0.671 ± 0.023
LVCRRYSGDSSS	0.637 ± 0.023
LVDSSLTESLDV	0.645 ± 0.034
LVFCSLLSLFFS	0.557 ± 0.012
LVGSLGVYGVYV	0.665 ± 0.043
LVICPRVLRDFR	0.663 ± 0.05
LVILLLQLLSGT	0.51758 ± 0.00046
LVLFFRSYCLVV	0.5142 ± 0.0036
LVLKLWNKFFVD	0.65438 ± 0.00026
LVLPASSPCLFF	0.647 ± 0.034
LVLSRSGPFSHL	0.7 ± 0.073
LVLTLIDGSWNV	0.7011 ± 0.0056
LVLVSFWWSGPM	0.526 ± 0.031

Sequence	protein stability index
LVPPPPPPSPPP	0.6457 ± 0.004
LVRASDPLSVTI	0.689 ± 0.073
LVRILSRSVVRT	0.697 ± 0.078
LVRLNSHRYTSV	0.613 ± 0.035
LVSCPPPPAPPP	0.659 ± 0.06
LVSPSSPLLPPP	0.685 ± 0.082
LVSRLAGAVLGR	0.632 ± 0.014
LVSVSVGFFLLL	0.499 ± 0.047
LVSWFWPFSFFA	0.661 ± 0.098
LVVEYFLCGSIS	0.532 ± 0.035
LVVWSSIVSGGG	0.675 ± 0.05
LVYLQVFSSLLS	0.543 ± 0.014
LWGGVVGRVRGV	0.635 ± 0.037
LWGVVVGELGSC	0.723 ± 0.074
LWISVDEGQLCH	0.617 ± 0.042
LWPVSMTSSFFF	0.661 ± 0.048
LWRFMLGQGFEG	0.726 ± 0.022
LWVGVGRWLRGR	0.744 ± 0.014
LYAHVPSYRVSA	0.593 ± 0.058
LYNVTRDTWVLS	0.66 ± 0.057
LYPSFSHTPPPT	0.69 ± 0.056
LYSPLLCRLPFP	0.666 ± 0.045
LYVLHCSLIEEV	0.543 ± 0.051
MAHAYTRKDTRK	0.64 ± 0.052
MAICRVLSQVFL	0.686 ± 0.12
MAIRSPACRLRF	0.674 ± 0.049

Sequence	protein stability index
MAWGVGTRRLGW	0.679 ± 0.044
MCDSFFGHSVRN	0.699 ± 0.043
MCLWMGFWFACF	0.537 ± 0.024
MENAMHQLNRNT	0.679 ± 0.022
MFDSHQWVCIKD	0.785 ± 0.1
MGGKGRGGRREI	0.666 ± 0.041
MGSQATPQRENS	0.659 ± 0.12
MGVGINSGDKLC	0.667 ± 0.11
MGVGRFEWVVGG	0.665 ± 0.053
MGVHKQQMRGQR	0.682 ± 0.036
MGYPGFGRVPYV	0.723 ± 0.053
MHLRFYFLKTDV	0.597 ± 0.02
MKIKIEINKNKT	0.654 ± 0.032
MKKVQENIKGKH	0.717 ± 0.11
MKRMIKREIKIK	0.679 ± 0.089
MKTSIQHNRNPG	0.659 ± 0.0096
MLFLGPRLVVPA	0.565 ± 0.0097
MLRRSGEGVRLE	0.7218 ± 0.0045
MLYNQDIGQELL	0.652 ± 0.058
MMFRRLPTRGRF	0.6951 ± 0.0021
MNQELRNCKGNG	0.6259 ± 0.0034
MNRHLHFLSPET	0.648 ± 0.031
MQGCKAYSVGRQ	0.701 ± 0.061
MQLTRKEEKSQE	0.658 ± 0.023
MSEFDVPLPIYM	0.716 ± 0.063
MTRGSAPELWLL	0.655 ± 0.029

Sequence	protein stability index
MVCSFVSLLGRF	0.69 ± 0.01
MVGGVLLSGCRF	0.6455 ± 0.0021
MVVLSGVLPVGD	0.642 ± 0.0077
MWLGSGCWVNGL	0.735 ± 0.048
MWQSRSAYFGSN	0.692 ± 0.075
MWYCGVSGPGNG	0.6859 ± 0.0013
MYHGKKTAGINV	0.7 ± 0.037
MYRLSFAAGRGS	0.688 ± 0.016
NAFTMWVSRQAR	0.77 ± 0.02
NALFGWMRGCLS	0.724 ± 0.034
NARMPPHIVAGI	0.64 ± 0.034
NASVRMFIRTGC	0.6971 ± 0.00097
NCMFKSNKQGGA	0.6749 ± 0.0021
NCPIQEPVSAIY	0.661 ± 0.007
NCTHKKKTLTPN	0.726 ± 0.012
NDGSDYRFLSLK	0.706 ± 0.011
NECKIKKDNTKK	0.672 ± 0.06
NEEVAKKKKIRV	0.667 ± 0.061
NEINKPTRSQTA	0.644 ± 0.04
NENFILCPRVNL	0.701 ± 0.035
